Square brackets hold non-standard residues; d marks the D form. Ends that are not written are not given here. pY = N[C@@H](Cc1ccc(OP(=O)(O)O)cc1)C(=O)O
Biological target: SOCS4-ElonginC-ElonginB ternary complex (human), Q8WXH5
Experiment: ITC; 0.3-0.4 mM peptide injected into 15 μM protein; 50 mM HEPES (pH 7.5), 150 mM NaCl, 1 mM DTT, 20°C; blank titrations subtracted; single binding site model
Details: remark: other sources report otherwise

Sequence of SOCS4-ElonginC-ElonginB ternary complex (human), Q8WXH5 (Q8WXH5 274-437, chain 1 of 3): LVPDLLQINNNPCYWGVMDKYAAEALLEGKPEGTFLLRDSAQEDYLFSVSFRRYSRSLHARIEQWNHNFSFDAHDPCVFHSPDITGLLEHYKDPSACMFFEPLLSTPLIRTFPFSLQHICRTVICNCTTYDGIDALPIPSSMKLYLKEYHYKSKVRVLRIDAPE
Sequence of SOCS4-ElonginC-ElonginB ternary complex (human), Q8WXH5 (Q15369 17-112, chain 2 of 3, further chain): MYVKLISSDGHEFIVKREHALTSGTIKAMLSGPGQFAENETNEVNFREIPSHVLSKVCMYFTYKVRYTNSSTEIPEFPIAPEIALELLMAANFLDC
Sequence of SOCS4-ElonginC-ElonginB ternary complex (human), Q8WXH5 (Q15370 whole entry, chain 3 of 3, further chain): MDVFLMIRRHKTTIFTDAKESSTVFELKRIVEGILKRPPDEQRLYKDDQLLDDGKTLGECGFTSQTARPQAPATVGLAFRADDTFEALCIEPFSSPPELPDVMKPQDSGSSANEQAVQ

Ka: 130000 M⁻¹
Kd: 7.7 µM
dH: -14.5 kcal/mol
stoichiometry N: 0.71
Binder: ASFE[pY]TILDPS [EpoR pY402 peptide ASFE(pY)TILDPS]

Source: PMC2225448
